# Positions count from the first letter of the chain named.
# Assays:
# [1] = target: Hfq (UniProt P0A6X3); assay: EMSA; conditions: EMSA: 20 mM Tris pH 7.5, 100 mM NaCl, 1 mM MgCl2, 1 mM DTT, 30 C, 0.2 uM RNA; BLI: same buffer + 1 mg/mL acetylated BSA; ITC: 20 mM Tris-HCl pH 7.5, 1 mM …
# [2] = target: T1, PNPase (UniProt P05055); assay: EMSA; conditions: EMSA: 20 mM Tris pH 7.5, 100 mM NaCl, 1 mM MgCl2, 1 mM DTT, 30 C, 0.2 uM RNA; BLI: same buffer + 1 mg/mL acetylated BSA; ITC: 20 mM Tris-HCl pH 7.5, 1 mM …
# T1 sequence: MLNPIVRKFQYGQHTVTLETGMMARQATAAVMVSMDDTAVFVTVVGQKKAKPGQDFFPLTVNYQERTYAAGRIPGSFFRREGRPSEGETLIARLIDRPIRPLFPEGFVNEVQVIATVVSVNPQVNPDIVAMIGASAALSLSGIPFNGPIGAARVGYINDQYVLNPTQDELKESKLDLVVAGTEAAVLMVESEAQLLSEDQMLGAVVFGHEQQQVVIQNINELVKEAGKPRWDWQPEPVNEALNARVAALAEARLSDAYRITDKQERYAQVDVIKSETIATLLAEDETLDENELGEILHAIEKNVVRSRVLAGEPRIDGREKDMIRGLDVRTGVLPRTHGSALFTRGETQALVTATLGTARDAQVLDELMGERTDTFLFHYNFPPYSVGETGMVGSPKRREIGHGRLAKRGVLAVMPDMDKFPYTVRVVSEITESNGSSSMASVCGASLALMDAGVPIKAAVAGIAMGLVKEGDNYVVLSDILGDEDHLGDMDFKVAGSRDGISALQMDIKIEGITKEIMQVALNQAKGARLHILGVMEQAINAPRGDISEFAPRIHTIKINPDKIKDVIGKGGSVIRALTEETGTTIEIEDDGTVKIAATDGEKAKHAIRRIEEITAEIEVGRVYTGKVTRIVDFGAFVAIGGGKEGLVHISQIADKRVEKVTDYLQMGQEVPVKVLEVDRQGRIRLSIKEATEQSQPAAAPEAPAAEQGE
# [3] = target: T2, PNPase S437-9A (active site mutant) S437A;S438A;S439A (UniProt P05055); assay: EMSA; conditions: EMSA: 20 mM Tris pH 7.5, 100 mM NaCl, 1 mM MgCl2, 1 mM DTT, 30 C, 0.2 uM RNA; BLI: same buffer + 1 mg/mL acetylated BSA; ITC: 20 mM Tris-HCl pH 7.5, 1 mM …
# T2 sequence: T1 sequence with S437A, S438A, S439A
# [4] = target: PNPase;Hfq (Escherichia coli K-12 MG1655 derivative?;Escherichia coli?) (UniProt P05055+P0A6X3); assay: EMSA; conditions: EMSA: 20 mM Tris pH 7.5, 100 mM NaCl, 1 mM MgCl2, 1 mM DTT, 30 C, 0.2 uM RNA; BLI: same buffer + 1 mg/mL acetylated BSA; ITC: 20 mM Tris-HCl pH 7.5, 1 mM …
# [5] = target: T3, PNPase delta-S1 (UniProt P05055); assay: EMSA; conditions: EMSA: 20 mM Tris pH 7.5, 100 mM NaCl, 1 mM MgCl2, 1 mM DTT, 30 C, 0.2 uM RNA; BLI: same buffer + 1 mg/mL acetylated BSA; ITC: 20 mM Tris-HCl pH 7.5, 1 mM …
# T3 sequence: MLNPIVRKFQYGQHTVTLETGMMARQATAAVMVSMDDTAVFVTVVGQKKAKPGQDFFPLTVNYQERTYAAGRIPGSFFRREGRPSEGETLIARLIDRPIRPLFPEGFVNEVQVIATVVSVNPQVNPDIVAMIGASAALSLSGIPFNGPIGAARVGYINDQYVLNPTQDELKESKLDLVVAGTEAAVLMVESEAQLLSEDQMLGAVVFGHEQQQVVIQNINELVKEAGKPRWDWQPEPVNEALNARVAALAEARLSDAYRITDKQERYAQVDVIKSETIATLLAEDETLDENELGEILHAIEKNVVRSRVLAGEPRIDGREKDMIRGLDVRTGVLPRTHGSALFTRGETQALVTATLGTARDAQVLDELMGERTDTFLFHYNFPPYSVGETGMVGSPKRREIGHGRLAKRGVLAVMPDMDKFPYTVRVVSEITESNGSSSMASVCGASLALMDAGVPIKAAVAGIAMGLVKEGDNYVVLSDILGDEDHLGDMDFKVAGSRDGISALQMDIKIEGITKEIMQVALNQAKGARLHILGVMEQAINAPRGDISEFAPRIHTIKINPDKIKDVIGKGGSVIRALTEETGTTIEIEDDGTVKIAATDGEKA
# [6] = system: PNPase; assay: BLI; conditions: EMSA: 20 mM Tris pH 7.5, 100 mM NaCl, 1 mM MgCl2, 1 mM DTT, 30 C, 0.2 uM RNA; BLI: same buffer + 1 mg/mL acetylated BSA; ITC: 20 mM Tris-HCl pH 7.5, 1 mM …
# [7] = system: PNPase S437-9A (active site mutant); assay: BLI; conditions: EMSA: 20 mM Tris pH 7.5, 100 mM NaCl, 1 mM MgCl2, 1 mM DTT, 30 C, 0.2 uM RNA; BLI: same buffer + 1 mg/mL acetylated BSA; ITC: 20 mM Tris-HCl pH 7.5, 1 mM …
# [8] = target: T1, PNPase; assay: ITC; conditions: EMSA: 20 mM Tris pH 7.5, 100 mM NaCl, 1 mM MgCl2, 1 mM DTT, 30 C, 0.2 uM RNA; BLI: same buffer + 1 mg/mL acetylated BSA; ITC: 20 mM Tris-HCl pH 7.5, 1 mM …
# [9] = target: T1, PNPase; assay: BLI; conditions: EMSA: 20 mM Tris pH 7.5, 100 mM NaCl, 1 mM MgCl2, 1 mM DTT, 30 C, 0.2 uM RNA; BLI: same buffer + 1 mg/mL acetylated BSA; ITC: 20 mM Tris-HCl pH 7.5, 1 mM …
# [10] = target: T2, PNPase S437-9A (active site mutant) S437A;S438A;S439A; assay: BLI; conditions: EMSA: 20 mM Tris pH 7.5, 100 mM NaCl, 1 mM MgCl2, 1 mM DTT, 30 C, 0.2 uM RNA; BLI: same buffer + 1 mg/mL acetylated BSA; ITC: 20 mM Tris-HCl pH 7.5, 1 mM …
# [11] = target: T4, PNPase delta-KH delta-S1 (UniProt P05055); assay: EMSA; conditions: EMSA: 20 mM Tris pH 7.5, 100 mM NaCl, 1 mM MgCl2, 1 mM DTT, 30 C, 0.2 uM RNA; BLI: same buffer + 1 mg/mL acetylated BSA; ITC: 20 mM Tris-HCl pH 7.5, 1 mM …
# T4 sequence: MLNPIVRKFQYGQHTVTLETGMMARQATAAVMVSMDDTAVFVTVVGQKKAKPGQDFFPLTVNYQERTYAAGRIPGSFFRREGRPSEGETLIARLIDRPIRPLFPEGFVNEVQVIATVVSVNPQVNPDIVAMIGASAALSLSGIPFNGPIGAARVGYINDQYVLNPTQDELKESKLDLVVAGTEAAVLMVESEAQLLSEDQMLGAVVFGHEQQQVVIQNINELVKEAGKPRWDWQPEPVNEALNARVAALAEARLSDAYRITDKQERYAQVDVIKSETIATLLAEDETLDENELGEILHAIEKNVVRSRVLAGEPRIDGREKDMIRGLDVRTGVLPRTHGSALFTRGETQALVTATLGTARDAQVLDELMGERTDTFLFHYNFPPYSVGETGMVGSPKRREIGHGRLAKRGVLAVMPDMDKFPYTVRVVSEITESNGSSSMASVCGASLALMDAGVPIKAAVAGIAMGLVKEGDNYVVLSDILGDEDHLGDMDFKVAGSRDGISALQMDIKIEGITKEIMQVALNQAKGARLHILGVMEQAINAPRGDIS
# [12] = system: PNPase; assay: ITC; conditions: no phosphate, 1 mM Mg2+, 30 C, N = 1.01, EMSA: 20 mM Tris pH 7.5, 100 mM NaCl, 1 mM MgCl2, 1 mM DTT, 0.2 uM RNA, BLI: same buffer + 1 mg/mL acetylated …, ITC: 20 mM Tris-HCl pH 7.5, 1 mM MgCl2
# Hfq, sequence (P0A6X3 whole entry): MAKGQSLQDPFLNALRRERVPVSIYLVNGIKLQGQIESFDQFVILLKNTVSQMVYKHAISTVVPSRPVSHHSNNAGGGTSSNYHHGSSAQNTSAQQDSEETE
# PNPase;Hfq (Escherichia coli K-12 MG1655 derivative?;Escherichia coli?), sequence (P0A6X3 whole entry, one chain of several): as the sequence (P0A6X3 whole entry) above
substance,measurement,setting,value
GCUGAAAAACAUAACCCAUAAAAUGCUAGCUGUACCAGGAACCACCUCCUUAGCCUGUGUAAUCUCCCUUACACGGGCUUAUUUUUU [CyaR],binding,[1],binds
same,binding,[2],binds
same,binding,[3],binds more weakly
same,binding,[4],binds
same,binding,[5],binds more weakly
5'-biotin RyhB (9U),Kd,[6],15.8 nM
same,Kd,[7],149 nM
GCGAUCAGGAAGACCCUCGCGGAGAACCUGAAAGCACGACAUUGCUCACAUUGCUUCCAGUAUUACUUAGCCAGCCGGGUGCUGGCUUUU [RyhB (4U)],Kd,[8],85 nM
GCGAUCAGGAAGACCCUCGCGGAGAACCUGAAAGCACGACAUUGCUCACAUUGCUUCCAGUAUUACUUAGCCAGCCGGGUGCUGGCUUUUUUUUU [5'-biotin RyhB (9U)],Kd,[9],15.8 nM
same,Kd,[10],149 nM
GCGAUCAGGAAGACCCUCGCGGAGAACCUGAAAGCACGACAUUGCUCACAUUGCUUCCAGUAUUACUUAGCCAGCCGGGUGCUGGCUUUUUUUUU [RyhB (9U)],binding,[1],binds
same,binding,[11],binds more weakly
same,binding,[2],binds
same,binding,[3],binds more weakly
same,binding,[4],binds
same,binding,[5],binds more weakly
RyhB (4U),Kd,[12],85 nM

# — article PMC4748814
